Biological target: M6P receptor (M6PR)
Experiment: SPR (BIACORE T200), M6PR amine-coupled on CM5 chip, conjugate 200 nM to 12.5 nM, 1:1 Langmuir model

imiglucerase long-acting conjugate (from UniProt P04062 40-536; P01861 107-327)
M6PR Binding Affinity (relative to imiglucerase = 100%): 22%
